Reference: PMC9016352, “Disease‐linked TDP‐43 hyperphosphorylation suppresses TDP‐43 condensation and aggregation”

Legend:
TDP‐43 = TDP‐43 (UniProt Q13148); assay: condensate sedimentation assay, TDP-43 Western blot; conditions: reference: unmodified TDP-43 (no CK1δ, no ATP); sites S403,S404,S409,S410
TDP-43-MBP-His6 Wt = TDP-43-MBP-His6 Wt (human (hTDP-43)?, UniProt Q13148 1-414); assay: EMSA; 20 mM NaPO4 pH 8, 150 mM NaCl, 1 mM DTT, 5 mM MgCl2, 0.5 mg/ml BSA, 0.1 mg/ml yeast tRNA, 5% glycerol, 1 U/ul RNase inhibitor, 20 min RT; 16 nM Cy5-RNA, 0-1.6 uM protein; 6% native PAGE 0.5x TBE; conditions: protein: recombinant; tags: C-terminal TEV site-MBP-His6; label: 5' Cy5

| Molecule | other: S/(S+C) ratio (higher = less condensate) (TDP‐43) | binding result (TDP-43-MBP-His6 Wt) |
| --- | --- | --- |
| TDP‐43 (from UniProt Q13148) TDP-43 + CK1δ + ATP | weaker; reference ~0.25 |  |
| UGUGUGUGUGUGUGUGUGUGUGUG (ssRNA) [(UG)12 RNA] |  | binds |
